From US20240158517A1 (HIFIBIO HK, published 2024)

Tests used:
human CXCR5 [1] = biological target: T1, human CXCR5 (human, UniProt P32302 1-372); experiment: binding to hCXCR5, Exp 1 (assay not given)
T1 construct: whole, on cells; Always presented on cells; one entry is used for all cell lines; also called hCXCR5; C-X-C chemokine receptor type 5
T1 sequence (looked up): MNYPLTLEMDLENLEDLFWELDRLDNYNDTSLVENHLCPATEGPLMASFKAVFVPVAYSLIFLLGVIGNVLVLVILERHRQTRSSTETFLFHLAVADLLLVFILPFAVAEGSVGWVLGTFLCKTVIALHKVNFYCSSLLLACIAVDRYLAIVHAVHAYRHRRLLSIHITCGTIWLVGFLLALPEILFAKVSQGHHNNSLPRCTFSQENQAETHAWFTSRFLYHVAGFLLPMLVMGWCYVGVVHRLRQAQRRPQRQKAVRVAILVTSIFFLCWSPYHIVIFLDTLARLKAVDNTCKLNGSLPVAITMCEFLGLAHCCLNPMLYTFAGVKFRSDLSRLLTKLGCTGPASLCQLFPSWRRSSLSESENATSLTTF

human CXCR5 [2] = biological target: T1, human CXCR5; experiment: binding to hCXCR5, Exp 2 (assay not given)
human CXCR5 [3] = biological target: T1, human CXCR5; experiment: flow cytometry on Raji cells, binding percentage, antibody at 1 nM and 0.1 nM
Method: Binding properties of these 36 humanized variants were tested in binding assay to Raji cells at two different concentrations, 1 nM and 0.1 nM.

human CXCR5 [4] = biological target: T1, human CXCR5; experiment: flow cytometry on an adherent stable cell line expressing hCXCR5, MFI normalized on the benchmark MFI
Method: In order to test the binding capacity to CXCR5, six chimeric monoclonal antibodies were tested in binding assay using adherent stable cell line expressing the target antigen hCXCR5.

murine CXCR5 = biological target: T2, murine CXCR5 (mouse, UniProt Q04683 1-374); experiment: flow cytometry on cells transiently transfected with murine CXCR5
T2 construct: whole, on cells; also called mouse CXCR5 ortholog
T2 sequence (looked up): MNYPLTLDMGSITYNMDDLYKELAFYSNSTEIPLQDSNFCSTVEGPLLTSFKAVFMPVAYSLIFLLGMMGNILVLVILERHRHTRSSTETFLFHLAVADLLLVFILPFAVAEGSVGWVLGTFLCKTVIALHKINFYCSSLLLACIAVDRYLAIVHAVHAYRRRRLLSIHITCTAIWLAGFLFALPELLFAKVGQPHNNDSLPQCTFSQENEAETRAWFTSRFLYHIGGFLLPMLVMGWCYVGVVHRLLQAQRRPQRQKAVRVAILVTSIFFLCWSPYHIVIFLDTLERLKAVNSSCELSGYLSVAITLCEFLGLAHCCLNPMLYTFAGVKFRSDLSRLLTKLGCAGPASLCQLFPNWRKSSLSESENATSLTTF

human CXCR3 = biological target: T3, human CXCR3 (human, UniProt P49682 1-368, limits assumed); experiment: flow cytometry (MFI) on hCXCR3
T3 construct: also called hCXCR3
T3 sequence (looked up): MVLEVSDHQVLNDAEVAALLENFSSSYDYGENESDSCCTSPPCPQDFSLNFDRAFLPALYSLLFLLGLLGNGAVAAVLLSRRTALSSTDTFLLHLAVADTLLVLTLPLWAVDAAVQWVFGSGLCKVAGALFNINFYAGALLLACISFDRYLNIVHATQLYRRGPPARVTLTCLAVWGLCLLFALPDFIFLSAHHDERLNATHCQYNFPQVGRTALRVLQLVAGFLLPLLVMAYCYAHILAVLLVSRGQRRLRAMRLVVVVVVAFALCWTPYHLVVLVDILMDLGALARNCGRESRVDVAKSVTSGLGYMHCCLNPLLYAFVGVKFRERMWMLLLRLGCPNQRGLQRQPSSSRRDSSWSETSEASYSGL

human CXCR5 [5] = biological target: T1, human CXCR5; experiment: binding to DX002 cells expressing CXCR5
human CXCR5 [6] = biological target: T1, human CXCR5; experiment: flow cytometry on adherent DX002 cells expressing CXCR5, MFI

B1: HFB2-4hz14-hG1DE (antibody, V domains shown)
VH: QVQLQESGPGLVKPSETLSLTCTVSGFSLTSYGVSWVRQPPGKGLEWIGVIWGDGSTNYNPSLKSRVTISKDTSKNQVSLKLSSVTAADTAVYYCARVVYWGQGTLVTVSS
VL: DIVMTQSPLSLPVTPGEPASISCRSSQSLLHSNGYNYLYWFLQKPGQSPQLLIYRGSNRASGVPDRFSGSGSGTDFTLKISRVEAEDVGVYYCMQHLQYPYTFGGGTKVEIK
notes: Humanized (VH3/VL1b), human IgG1 with S239D/I332E (hG1DE)
What does the source list for B1?
EC50 (human CXCR5 [1]): 0.4 nM; EC50 (human CXCR5 [2]): 0.1 nM

B2: HFB2-4hz15-hG1DE (antibody, V domains shown)
VH: QVQLQESGPGLVKPSETLSLTCTVSGFSLTSYGVSWVRQPPGKGLEWIGVIWGDGSTNYNPSLKSRVTISKDTSKNQVSLKLSSVTAADTAVYYCARVVYWGQGTLVTVSS
VL: DIVMTQSPLSLPVTPGEPISLSCRSSKSLLHSNGKTYLYWFLQKPGQSPQLLLYRMSNLASGVPDRFSGSGSGTDFTLKISRVEAEDVGVYYCMQHLEYPYTFGGGTKLEIK
notes: Humanized (VH3/VL1c), human IgG1 with S239D/I332E (hG1DE)
Which EC50 (human CXCR5 [1]) does the source give for B2 here?
Its EC50 is 0.6 nM.

What about the EC50 (human CXCR5 [2]) of the same binder?
Its EC50 is 0.05 nM.

B3: HFB2-4hz12-hG1DE (antibody, V domains shown)
VH: QVQLQESGPGLVKPSETLSLTCTVSGFSLTSYGVSWVRQPPGKGLEWIGVIWGDGSTNYNPSLKSRVTISKDTSKNQVSLKLSSVTAADTAVYYCARVVYWGQGTLVTVSS
VL: DIQMTQSPSSLSASVGDRVTITCRSSKSLLHSNGKTYLYWFQQKPGKAPKLLIYRMSNLASGVPSRFSGSGSGTDFTLTISSLQPEDFATYYCMQHLEYPYTFGGGTKVEIK
notes: Humanized (VH3/VL4), human IgG1 with S239D/I332E (hG1DE); also called HFB2-4hz12hIgDE
Which EC50 (human CXCR5 [1]) does the source give for B3 here?
The EC50 was 1.2 nM.

What about the EC50 (human CXCR5 [2]) of the same binder?
Its EC50 is 0.3 nM.

B4: HFB2-VH6VL4 (antibody, V domains shown)
VH: QVQLQESGPGLVKPSGTLSLTCAVSGFSLTSYGVSWVRQPPGKGLEWIGVIWGDGSTNYNPSLKSRLTISKDKSKNQVSLKLSSVTAADTAVYYCARVVYWGQGTLVTVSS
VL: DIQMTQSPSSLSASVGDRVTITCRSSKSLLHSNGKTYLYWFQQKPGKAPKLLIYRMSNLASGVPSRFSGSGSGTDFTLTISSLQPEDFATYYCMQHLEYPYTFGGGTKVEIK
Does B4 bind (human CXCR5 [3])?
Result: binds

B5: HFB2-VH6VL7 (antibody, V domains shown)
VH: QVQLQESGPGLVKPSGTLSLTCAVSGFSLTSYGVSWVRQPPGKGLEWIGVIWGDGSTNYNPSLKSRLTISKDKSKNQVSLKLSSVTAADTAVYYCARVVYWGQGTLVTVSS
VL: DIVMTQSPDSLAVSLGERATINCRSSKSLLHSNGKTYLYWFQQKPGQSPKLLLYRMSNLASGVPDRFSGSGSGTDFTLTISSLQAEDVAVYYCMQHLEYPYTFGQGTKLEIK
Does B5 bind (human CXCR5 [3])?
Result: binds

B6: HFB2-VH8VL4 (antibody, V domains shown)
VH: QVQLVESGGGVVQPGRSLRLSCAVSGFSLTSYGVSWVRQAPGKGLEWLGVIWGDGSTNYHSGLISRLTISKDNSKNTVYLQMNSLRAEDTAVYYCARVVYWGQGTLVTVSS
VL: DIQMTQSPSSLSASVGDRVTITCRSSKSLLHSNGKTYLYWFQQKPGKAPKLLIYRMSNLASGVPSRFSGSGSGTDFTLTISSLQPEDFATYYCMQHLEYPYTFGGGTKVEIK
Does B6 bind (human CXCR5 [3])?
Result: binds

B7: HFB2-VH8VL6 (antibody, V domains shown)
VH: QVQLVESGGGVVQPGRSLRLSCAVSGFSLTSYGVSWVRQAPGKGLEWLGVIWGDGSTNYHSGLISRLTISKDNSKNTVYLQMNSLRAEDTAVYYCARVVYWGQGTLVTVSS
VL: EIVMTQSPATLSVSPGERATLSCRSSKSLLHSNGKTYLYWFQQKPGQAPRLLIYRMSNLASGIPARFSGSGSGTEFTLTISSVQSEDVAVYYCMQHLEYPYTFGQGTKLEIK
Does B7 bind (human CXCR5 [3])?
Result: binds

B8: HFB2-4hz41hG1 (antibody, V domains shown)
VH: QVQLVESGGGVVQPGRSLRLSCAVSGFSLTSYGVSWVRQAPGKGLEWLGVIWGDGSTNYHSGLISRLTISKDNSKNTVYLQMNSLRAEDTAVYYCARVVYWGQGTLVTVSS
VL: DIVMTQSPDSLAVSLGERATINCRSSKSLLHSNGKTYLYWFQQKPGQSPKLLLYRMSNLASGVPDRFSGSGSGTDFTLTISSLQAEDVAVYYCMQHLEYPYTFGQGTKLEIK
notes: Humanized, human IgG1 (hG1); also called HFB2-VH8VL7
Does B8 bind (human CXCR5 [3])?
Result: binds

B9: HFB2-4-hG1 (antibody, V domains shown)
VH: QVQLKESGPGLVAPSQSLSITCTVSGFSLTSYGVSWVRQPPGKGLEWLGVIWGDGSTNYHSGLISRLSISKDNSKSQVFLKLNSLQSDDTATYYCARVVYWGQGTLVTVSA
VL: DIVMTQAAPSVPVTPGESISISCRSSKSLLHSNGKTYLYWFLQRPGQSPQLLLYRMSNLASGVPDRFSGSGSGTAFTLRISRVEAEDVGVYYCMQHLEYPYTFGGGTKLEIK
notes: Mouse-human chimeric antibody, human IgG1 constant region; also called parental
Which EC50 (human CXCR5 [4]) does the source give for B9 here?
Its EC50 is 0.924 nM.

Does B9 bind (murine CXCR5)?
Result: no binding (tested: about 150 nM)

Does B9 bind (human CXCR3)?
Result: no binding (tested: about 150 nM)

B10: HFB2-VH10VL4 (antibody, V domains shown)
VH: QVQLVQSGAEVKKPGASVKVSCKASGFSLTSYGVSWVRQAPGQGLEWMGVIWGDGSTNYAQKLQGRVTMTKDTSTSTAYMELRSLRSDDTAVYYCARVVYWGQGTLVTVSS
VL: DIQMTQSPSSLSASVGDRVTITCRSSKSLLHSNGKTYLYWFQQKPGKAPKLLIYRMSNLASGVPSRFSGSGSGTDFTLTISSLQPEDFATYYCMQHLEYPYTFGGGTKVEIK
Does B10 bind (human CXCR5 [3])?
Result: binds

B11: HFB2-VH10VL7 (antibody, V domains shown)
VH: QVQLVQSGAEVKKPGASVKVSCKASGFSLTSYGVSWVRQAPGQGLEWMGVIWGDGSTNYAQKLQGRVTMTKDTSTSTAYMELRSLRSDDTAVYYCARVVYWGQGTLVTVSS
VL: DIVMTQSPDSLAVSLGERATINCRSSKSLLHSNGKTYLYWFQQKPGQSPKLLLYRMSNLASGVPDRFSGSGSGTDFTLTISSLQAEDVAVYYCMQHLEYPYTFGQGTKLEIK
Does B11 bind (human CXCR5 [3])?
Result: binds

B12: HFB2-6-hG1 (antibody, V domains shown)
VH: QIQLQQSGPELVEPGASVKLSCKASGYTFTDYTIHWVKQSPGQGLEWIGWIYPGSGNIKYNDKFKGKATMTADKSSSTAYMQLSSLTSEDSAVYFCARGLRREFAYWGQGTLVTVSA
VL: DIVMTQAAFSNPVTLGTSASISCRSSKSLLHSNGITYLYWYLQKPGQSPQLLIYQMSNLASGVPDRFSSSGSGTDFTLRISRVEAEDVGVYYCAQSLELPLTFGAGTKLELK
notes: Mouse-human chimeric antibody, human IgG1 constant region
What does the source list for B12?
EC50 (human CXCR5 [4]): 0.5 nM; binding result (murine CXCR5): no binding (tested: about 150 nM); binding result (human CXCR3): no binding (tested: about 150 nM)

B13: HFB2-4hz37hG1DE (antibody, V domains shown)
VH: QVQLQESGPGLVKPSETLSLTCTVSGFSLTSYGVSWVRQPPGKGLEWIGVIWGDGSTNYNPSLKSRVTISKDTSKNQVSLKLSSVTAADTAVYYCARVVYWGQGTLVTVSS
VL: EIVMTQSPATLSVSPGERATLSCRSSKSLLHSNGKTYLYWFQQKPGQAPRLLIYRMSNLASGIPARFSGSGSGTEFTLTISSVQSEDVAVYYCMQHLEYPYTFGQGTKLEIK
notes: Humanized (VH3/VL6) produced in hG1DE format (human IgG1, S239D/I332E)
Which EC50 (human CXCR5 [5]) does the source give for B13 here?
The EC50 was 0.099 nM.

What about the EC50 (human CXCR5 [6]) of the same binder?
Its EC50 is 0.0785 nM.

B14: HFB2-4hz38hG1DE (antibody, V domains shown)
VH: QVQLQESGPGLVKPSETLSLTCTVSGFSLTSYGVSWVRQPPGKGLEWIGVIWGDGSTNYNPSLKSRVTISKDTSKNQVSLKLSSVTAADTAVYYCARVVYWGQGTLVTVSS
VL: DIVMTQSPDSLAVSLGERATINCRSSKSLLHSNGKTYLYWFQQKPGQSPKLLLYRMSNLASGVPDRFSGSGSGTDFTLTISSLQAEDVAVYYCMQHLEYPYTFGQGTKLEIK
notes: Humanized (VH3/VL7) in hG1DE format
Which results are given for B14?
EC50 (human CXCR5 [5]): 0.106 nM; EC50 (human CXCR5 [6]): 0.0878 nM

B15: HFB2-4hz39hG1DE (antibody, V domains shown)
VH: QVQLQESGPGLVKPSGTLSLTCAVSGFSLTSYGVSWVRQPPGKGLEWIGVIWGDGSTNYNPSLKSRLTISKDKSKNQVSLKLSSVTAADTAVYYCARVVYWGQGTLVTVSS
VL: EIVMTQSPATLSVSPGERATLSCRSSKSLLHSNGKTYLYWFQQKPGQAPRLLIYRMSNLASGIPARFSGSGSGTEFTLTISSVQSEDVAVYYCMQHLEYPYTFGQGTKLEIK
notes: Humanized (VH6/VL6) in hG1DE format
For B15, which EC50 (human CXCR5 [5]) is on record?
Its EC50 is 0.26 nM.

What about the EC50 (human CXCR5 [6]) of the same binder?
The EC50 was 0.232 nM.
